In paper PMC3562449 (Nature Communications, 2013):
Several values for one entry are separate records, joined by “and”; a condition that tells them apart may be missing. Equal entries are not always repeated. One block for each molecule: values may come before it.

Experiments:
[1] = target: BASS-NoC single mutant with Cys at residue 671 (Drosophila) (UniProt P46863); assay: SEC + other: sucrose density gradient centrifugation
[2] = target: BASS-NoC single mutant with Cys at residue 791 (Drosophila) (UniProt P46863); assay: as above
[3] = target: BASS-NoC double mutant with Cys at residues 671 and 788 (Drosophila) (UniProt P46863); assay: as above
[4] = target: BASS-NoC double mutant with Cys at residues 671 and 791 (Drosophila) (UniProt P46863); assay: as above
[5] = target: BASS-NoC single mutant with Cys at residue 788 (Drosophila) (UniProt P46863); assay: as above
SEC = target: the molecule itself; assay: SEC
native MS = target: the molecule itself; assay: native MS

Molecule: BASS-NoC single mutant with Cys at residue 671 (from UniProt P46863 631-920) (domain or fragment)
stoichiometry N [1]: 4

Molecule: BASS-NoC single mutant with Cys at residue 788 (from UniProt P46863 631-920) (domain or fragment)
stoichiometry N [5]: 4

B1: BASS-core (BASS 631–835) (domain or fragment, Drosophila, UniProt P46863 631-835, looked up)
chain: EQMQQQQLLMSKEIQTNLQVIEENNQRHKAMLDSMQEKFATIIDSSLQSVEEHAKQMHKKLEQLGAMSLPDAEELQNLQEELANERALAQQEDALLESMMMQMEQIKNLRSKNSISMSVHLNKMEESRLTRNHRIDDIKSGIQDYQKLGIEASQSAQAELTSQMEAGMLCLDQGVANCSMLQVHMKNLNQKYEKETNENVGSVRV
stoichiometry N (SEC): 4

B2: BASS 631–790 (domain or fragment, Drosophila, UniProt P46863 631-790, looked up)
chain: EQMQQQQLLMSKEIQTNLQVIEENNQRHKAMLDSMQEKFATIIDSSLQSVEEHAKQMHKKLEQLGAMSLPDAEELQNLQEELANERALAQQEDALLESMMMQMEQIKNLRSKNSISMSVHLNKMEESRLTRNHRIDDIKSGIQDYQKLGIEASQSAQAEL
stoichiometry N (SEC): 4 and 2

B3: BASS (bipolar assembly) domain of kinesin-5, residues 631–920 (domain or fragment, Drosophila, UniProt P46863 631-920, looked up)
chain: EQMQQQQLLMSKEIQTNLQVIEENNQRHKAMLDSMQEKFATIIDSSLQSVEEHAKQMHKKLEQLGAMSLPDAEELQNLQEELANERALAQQEDALLESMMMQMEQIKNLRSKNSISMSVHLNKMEESRLTRNHRIDDIKSGIQDYQKLGIEASQSAQAELTSQMEAGMLCLDQGVANCSMLQVHMKNLNQKYEKETNENVGSVRVHHNQVEIICQESKQQLEAVQEKTEVNLEQMVDARQQLITEDRQRFIGHATVATDLVQESNRQFSEHAEHQRQQLQICEQELVRFQ
stoichiometry N (native MS): 2 and 4

Second part, the molecule after the results:

stoichiometry N [2]: 4
Molecule: BASS-NoC single mutant with Cys at residue 791 (from UniProt P46863 631-920) (domain or fragment)

stoichiometry N [3]: 4
Molecule: BASS-NoC double mutant with Cys at residues 671 and 788 (from UniProt P46863 631-920) (domain or fragment)

stoichiometry N [4]: 4
Molecule: BASS-NoC double mutant with Cys at residues 671 and 791 (from UniProt P46863 631-920) (domain or fragment)
